The subject of data set [1] is TSPYL5-NLD (Homo sapiens). In words: EMSA. Conditions: 10 mM Hepes pH 7.5, 200 mM NaCl, 1 mM TCEP, 5% glycerol, 0.5 mM EDTA; 30 min on ice then 20 min at 25 °C; 6% native Tris-glycine PAGE, GelGreen stain.
Data set [2] concerns the target recombinant His-tagged histone H3/H4 (human) (UniProt P68431). In words: SEC-MALS; Enrich SEC 70 column in high salt HBS buffer (20 mM Hepes pH 7.5, 2 M NaCl, 1 mM TCEP, 5% glycerol); TSPYL5-NLD alone, H3/H4 alone (H3/H4 dimers to tetramer) and the coexpressed, co-purified complex. In general terms: Size exclusion chromatography separates by hydrodynamic size, large species first.

As usually defined, the Kd is the concentration at which binding is half-saturated. 146 bp DNA yielded a Kd in data set [1] of 380 nM.

For “His-SUMO-tagged TSPYL5-NLD (from UniProt Q86VY4 198-388) (domain or fragment)”, the stoichiometry N (TSPYL5 : 2 H3 : 2 H4) in data set [2] is 2.

80 bp DNA had a Kd in data set [1] of 500 nM.

As usually defined, the stoichiometry N is a count of units in the complex or per binding partner. As for “recombinant His-tagged histone H3/H4 (from UniProt P68431 1-136; P62805 1-103) (complex)”, the stoichiometry N in data set [2] was found to be 4.

Values taken from PMC9305336.
